Data reported in IntAct's records for PubMed 17762867.

B1: Adaptin ear-binding coat-associated protein 2 (Mus musculus), Q9D1J1 (parent)
chain: MEESEYESVLCVKPEVHVYRIPPRATNRGYRASEWQLDQPSWSGRLRITAKGKVAYIKLEDRTSGELFAQAPVDQFPGTAVESVTDSSRYFVIRIEDGNGRRAFIGLGFGDRGDAFDFNVALQDHFKWVKQQCEFAKQAQNPDEGPKLDLGFKDGQTIKINIANMRKKEGAAGTPRARPTSAGGLSLLPPPPGGKSSTVIPPSGEQLSVGGSLVQPAVVSGSGGATELWPQSKPAAAATADIWGDFTKSTGSPSSQSQPGTGWVQF
partner: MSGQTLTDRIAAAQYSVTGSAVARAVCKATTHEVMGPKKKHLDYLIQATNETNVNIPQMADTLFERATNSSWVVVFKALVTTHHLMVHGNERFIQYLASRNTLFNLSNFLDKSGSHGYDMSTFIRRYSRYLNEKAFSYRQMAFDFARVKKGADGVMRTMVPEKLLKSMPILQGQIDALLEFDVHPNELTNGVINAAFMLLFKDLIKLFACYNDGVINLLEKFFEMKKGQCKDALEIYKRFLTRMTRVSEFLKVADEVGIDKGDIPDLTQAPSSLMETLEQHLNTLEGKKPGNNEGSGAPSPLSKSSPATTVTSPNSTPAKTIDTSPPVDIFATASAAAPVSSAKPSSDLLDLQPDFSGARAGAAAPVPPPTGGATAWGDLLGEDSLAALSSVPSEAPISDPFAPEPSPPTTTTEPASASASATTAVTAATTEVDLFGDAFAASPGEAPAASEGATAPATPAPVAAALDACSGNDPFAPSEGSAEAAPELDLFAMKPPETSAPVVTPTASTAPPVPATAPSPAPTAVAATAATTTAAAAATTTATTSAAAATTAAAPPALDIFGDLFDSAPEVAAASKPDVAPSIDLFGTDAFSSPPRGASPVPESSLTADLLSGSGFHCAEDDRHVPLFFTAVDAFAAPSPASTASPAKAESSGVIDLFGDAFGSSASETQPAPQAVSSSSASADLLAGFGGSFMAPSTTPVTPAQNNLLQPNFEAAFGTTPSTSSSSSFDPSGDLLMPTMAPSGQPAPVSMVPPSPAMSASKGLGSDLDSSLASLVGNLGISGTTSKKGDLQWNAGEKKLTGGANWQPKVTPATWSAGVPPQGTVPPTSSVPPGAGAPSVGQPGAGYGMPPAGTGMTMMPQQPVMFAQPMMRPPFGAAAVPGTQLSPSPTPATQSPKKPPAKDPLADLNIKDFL
B2: Adaptin ear-binding coat-associated protein 1 (Mus musculus), Q9CR95 (parent)
chain: MAAELEYESVLCVKPDVSVYRIPPRASNRGYRASDWKLDQPDWTGRLRITSKGKIAYIKLEDKVSGELFAQAPVEQYPGIAVETVTDSSRYFVIRIQDGTGRSAFIGIGFTDRGDAFDFNVSLQDHFKWVKQETEISKESQEMDNRPKLDLGFKEGQTIKLSIGNITAKKGGASKPRASGTGGLSLLPPPPGGKVTIPPPSSSVAISNHVTPPPIPKSNHGGNDSDILLDLDSPAPVSTSAPAPVSTSNDLWGDFSTASSSVPNQAPQPSNWVQF
B3: Adaptin ear-binding coat-associated protein 1 (Mus musculus), Q9CR95 (parent)
chain: B2 chain
partner: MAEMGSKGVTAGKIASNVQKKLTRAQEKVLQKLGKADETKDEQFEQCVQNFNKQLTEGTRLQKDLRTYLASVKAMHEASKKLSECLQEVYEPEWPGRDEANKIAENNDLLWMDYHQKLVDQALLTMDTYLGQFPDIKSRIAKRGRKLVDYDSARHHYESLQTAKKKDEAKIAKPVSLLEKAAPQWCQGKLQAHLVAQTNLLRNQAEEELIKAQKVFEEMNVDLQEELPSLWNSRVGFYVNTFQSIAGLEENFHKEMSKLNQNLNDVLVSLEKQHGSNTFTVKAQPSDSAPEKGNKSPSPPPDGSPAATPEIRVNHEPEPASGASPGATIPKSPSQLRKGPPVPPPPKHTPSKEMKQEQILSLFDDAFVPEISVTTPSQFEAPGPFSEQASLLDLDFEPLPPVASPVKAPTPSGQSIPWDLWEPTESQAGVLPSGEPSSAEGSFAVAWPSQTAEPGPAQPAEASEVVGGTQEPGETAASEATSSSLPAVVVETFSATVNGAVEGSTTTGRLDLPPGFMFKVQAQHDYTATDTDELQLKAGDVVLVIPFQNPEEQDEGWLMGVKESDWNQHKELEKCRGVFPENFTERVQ
B4: Adaptin ear-binding coat-associated protein 2 (Mus musculus), Q9D1J1 (parent)
chain: B1 chain
partner: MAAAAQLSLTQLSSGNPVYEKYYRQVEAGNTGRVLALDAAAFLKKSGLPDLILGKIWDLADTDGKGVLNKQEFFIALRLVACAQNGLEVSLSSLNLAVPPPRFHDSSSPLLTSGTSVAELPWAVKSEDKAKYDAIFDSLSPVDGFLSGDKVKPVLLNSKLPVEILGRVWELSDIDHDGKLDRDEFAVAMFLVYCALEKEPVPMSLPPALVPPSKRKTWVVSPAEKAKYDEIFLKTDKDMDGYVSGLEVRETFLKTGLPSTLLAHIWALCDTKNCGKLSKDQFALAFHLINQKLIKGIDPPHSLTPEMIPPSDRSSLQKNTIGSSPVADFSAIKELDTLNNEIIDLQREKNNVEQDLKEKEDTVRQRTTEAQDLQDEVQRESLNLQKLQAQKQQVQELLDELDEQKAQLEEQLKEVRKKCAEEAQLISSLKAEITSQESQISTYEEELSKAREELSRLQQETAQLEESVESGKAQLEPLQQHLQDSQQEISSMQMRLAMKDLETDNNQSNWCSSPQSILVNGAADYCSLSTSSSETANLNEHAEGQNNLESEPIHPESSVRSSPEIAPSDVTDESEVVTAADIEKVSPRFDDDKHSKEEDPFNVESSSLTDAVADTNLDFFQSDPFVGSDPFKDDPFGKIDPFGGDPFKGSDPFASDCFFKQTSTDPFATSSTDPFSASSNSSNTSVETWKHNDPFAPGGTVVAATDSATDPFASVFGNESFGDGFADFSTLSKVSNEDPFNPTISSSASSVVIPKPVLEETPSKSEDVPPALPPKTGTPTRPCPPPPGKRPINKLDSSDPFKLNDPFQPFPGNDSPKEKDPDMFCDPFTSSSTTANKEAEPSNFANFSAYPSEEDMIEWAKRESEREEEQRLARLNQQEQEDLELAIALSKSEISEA
B5: Adaptin ear-binding coat-associated protein 2 (Mus musculus), Q9D1J1 (parent)
chain: B1 chain

Variants of: B1
Details: with ap180_rat Snap91, Q05140

effect of a mutation on the interaction | Variant
increasing interaction | S41A
disrupting interaction | R101A
disrupting interaction | R20A

Variants of: B2
Details: with Synj1, Q62910-1
Chain of Synj1, Q62910-1 (Q62910 whole entry): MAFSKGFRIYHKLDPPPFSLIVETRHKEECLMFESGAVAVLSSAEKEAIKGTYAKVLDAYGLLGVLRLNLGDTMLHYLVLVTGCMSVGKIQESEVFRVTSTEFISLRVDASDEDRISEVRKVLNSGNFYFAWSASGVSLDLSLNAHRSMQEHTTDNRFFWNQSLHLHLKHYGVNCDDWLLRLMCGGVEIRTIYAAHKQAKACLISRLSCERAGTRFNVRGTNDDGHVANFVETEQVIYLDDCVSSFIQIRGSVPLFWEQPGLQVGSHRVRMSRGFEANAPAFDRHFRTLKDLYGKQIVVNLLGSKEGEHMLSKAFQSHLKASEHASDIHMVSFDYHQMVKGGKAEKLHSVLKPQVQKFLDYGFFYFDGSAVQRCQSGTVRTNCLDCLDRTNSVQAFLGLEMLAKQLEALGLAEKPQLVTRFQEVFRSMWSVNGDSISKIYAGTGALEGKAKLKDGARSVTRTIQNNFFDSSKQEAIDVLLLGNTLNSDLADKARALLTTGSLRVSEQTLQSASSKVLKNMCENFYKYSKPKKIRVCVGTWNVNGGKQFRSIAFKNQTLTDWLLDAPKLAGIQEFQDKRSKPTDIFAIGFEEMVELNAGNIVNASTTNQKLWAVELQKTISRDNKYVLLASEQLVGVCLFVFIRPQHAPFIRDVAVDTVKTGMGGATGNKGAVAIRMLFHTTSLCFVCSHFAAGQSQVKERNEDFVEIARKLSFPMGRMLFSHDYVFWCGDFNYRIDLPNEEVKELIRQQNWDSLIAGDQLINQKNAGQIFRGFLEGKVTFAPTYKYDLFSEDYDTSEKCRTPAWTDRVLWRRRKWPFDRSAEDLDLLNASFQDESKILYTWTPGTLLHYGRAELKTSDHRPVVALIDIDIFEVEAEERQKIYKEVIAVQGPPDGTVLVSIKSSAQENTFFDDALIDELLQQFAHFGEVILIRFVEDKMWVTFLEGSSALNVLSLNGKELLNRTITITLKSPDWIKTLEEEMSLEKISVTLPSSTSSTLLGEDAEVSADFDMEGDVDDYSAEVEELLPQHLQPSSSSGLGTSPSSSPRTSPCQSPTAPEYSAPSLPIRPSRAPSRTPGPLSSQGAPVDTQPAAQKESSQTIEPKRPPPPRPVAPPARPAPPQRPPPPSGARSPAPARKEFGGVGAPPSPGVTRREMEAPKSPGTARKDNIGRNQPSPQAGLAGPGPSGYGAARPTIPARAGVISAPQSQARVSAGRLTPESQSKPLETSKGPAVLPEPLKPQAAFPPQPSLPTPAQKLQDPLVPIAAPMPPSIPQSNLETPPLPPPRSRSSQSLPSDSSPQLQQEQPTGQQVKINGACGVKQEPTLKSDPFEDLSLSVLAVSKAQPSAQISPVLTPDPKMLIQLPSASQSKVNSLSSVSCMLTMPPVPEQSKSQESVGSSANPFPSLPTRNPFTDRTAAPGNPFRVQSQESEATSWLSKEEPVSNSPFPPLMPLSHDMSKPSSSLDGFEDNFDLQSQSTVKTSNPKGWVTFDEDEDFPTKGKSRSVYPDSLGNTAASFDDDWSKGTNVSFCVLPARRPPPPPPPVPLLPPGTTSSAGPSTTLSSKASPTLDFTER

effect of a mutation on the interaction | Variant
decreasing interaction | R21A
disrupting interaction | R102A

Variants of: B3
Details: with bin1_rat Bin1, O08839

effect of a mutation on the interaction | Variant
disrupting interaction | R102A
disrupting interaction | R21A

Variants of: B4
Details: with Eps15, A7BFV9

effect of a mutation on the interaction | Variant
disrupting interaction | R101A
disrupting interaction | R20A

Variants of: B5
Details: with Synj1, Q62910-1

effect of a mutation on the interaction | Variant
decreasing interaction | R20A
disrupting interaction | R101A

Variants of: B5
Details: with epn1_rat Epn1, O88339
Chain of epn1_rat Epn1, O88339 (O88339 whole entry): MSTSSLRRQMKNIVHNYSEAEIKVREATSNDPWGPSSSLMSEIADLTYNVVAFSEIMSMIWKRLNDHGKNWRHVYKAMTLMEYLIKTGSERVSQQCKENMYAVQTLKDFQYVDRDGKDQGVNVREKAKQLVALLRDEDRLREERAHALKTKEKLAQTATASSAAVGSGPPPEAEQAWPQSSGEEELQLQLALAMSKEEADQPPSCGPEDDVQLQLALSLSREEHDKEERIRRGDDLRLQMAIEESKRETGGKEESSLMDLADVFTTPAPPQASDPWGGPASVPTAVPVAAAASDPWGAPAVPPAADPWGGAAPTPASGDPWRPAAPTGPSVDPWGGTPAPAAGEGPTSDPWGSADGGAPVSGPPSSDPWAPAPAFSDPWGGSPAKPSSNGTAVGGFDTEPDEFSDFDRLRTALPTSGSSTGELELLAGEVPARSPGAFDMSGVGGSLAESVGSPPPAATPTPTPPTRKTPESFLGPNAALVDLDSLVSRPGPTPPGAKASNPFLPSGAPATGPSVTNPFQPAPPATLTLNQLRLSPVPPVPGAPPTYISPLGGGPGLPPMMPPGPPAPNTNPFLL

effect of a mutation on the interaction | Variant
disrupting interaction | R101A
